Laboratory results from article PMC2859980.

Assays:
[1] = T cell IFN-γ ELISA after acid stripping and re-expression; details: glycan gained; control: same cells without z-vad-fmk
[2] = cytosolic fraction SDS-PAGE, anti-flag immunoblot; details: glycan gained; control: untreated (cycloheximide only)

Protein	other: MHC class I epitope presentation [1]	degradation_or_half_life [2]
tyrosinase: z-vad-fmk, R402Q tyrosinase cells (protein) parent chain: MLLAVLYCLLWSFQTSAGHFPRACVSSKNLMEKECCPPWSGDRSPCGQLSGRGSCQNILLSNAPLGPQFPFTGVDDRESWPSVFYNRTCQCSGNFMGFNCGNCKFGFWGPNCTERRLLVRRNIFDLSAPEKDKFFAYLTLAKHTISSDYVIPIGTYGQMKNGSTPMFNDINIYDLFVWMHYYVSMDALLGGSEIWRDIDFAHEAPAFLPWHRLFLLRWEQEIQKLTGDENFTIPYWDWRDAEKCDICTDEYMGGQHPTNPNLLSPASFFSSWQIVCSRLEEYNSHQSLCNGTPEGPLRRNPGNHDKSRTPRLPSSADVEFCLSLTQYESGSMDKAANFSFRNTLEGFASPLTGIADASQSSMHNALHIYMNGTMSQVQGSANDPIFLLHHAFVDSIFEQWLQRHRPLQEVYPEANAPIGHNRESYMVPFIPLYRNGDFFISSKDLGYDYSYLQDSDPDSFQDYIKSYLEQASRIWSWLLGAAMVGAVLTALLAGLVSLLCRHKRKQLPEEKQPLLMEKEDYHSLYQSHL	decreases	
tyrosinase: z-vad-fmk (protein) parent chain: MLLAVLYCLLWSFQTSAGHFPRACVSSKNLMEKECCPPWSGDRSPCGQLSGRGSCQNILLSNAPLGPQFPFTGVDDRESWPSVFYNRTCQCSGNFMGFNCGNCKFGFWGPNCTERRLLVRRNIFDLSAPEKDKFFAYLTLAKHTISSDYVIPIGTYGQMKNGSTPMFNDINIYDLFVWMHYYVSMDALLGGSEIWRDIDFAHEAPAFLPWHRLFLLRWEQEIQKLTGDENFTIPYWDWRDAEKCDICTDEYMGGQHPTNPNLLSPASFFSSWQIVCSRLEEYNSHQSLCNGTPEGPLRRNPGNHDKSRTPRLPSSADVEFCLSLTQYESGSMDKAANFSFRNTLEGFASPLTGIADASQSSMHNALHIYMNGTMSQVQGSANDPIFLLHHAFVDSIFEQWLRRHRPLQEVYPEANAPIGHNRESYMVPFIPLYRNGDFFISSKDLGYDYSYLQDSDPDSFQDYIKSYLEQASRIWSWLLGAAMVGAVLTALLAGLVSLLCRHKRKQLPEEKQPLLMEKEDYHSLYQSHL		no change
tyrosinase: z-vad-fmk, N371D R402Q tyrosinase cells (protein) parent chain: MLLAVLYCLLWSFQTSAGHFPRACVSSKNLMEKECCPPWSGDRSPCGQLSGRGSCQNILLSNAPLGPQFPFTGVDDRESWPSVFYNRTCQCSGNFMGFNCGNCKFGFWGPNCTERRLLVRRNIFDLSAPEKDKFFAYLTLAKHTISSDYVIPIGTYGQMKNGSTPMFNDINIYDLFVWMHYYVSMDALLGGSEIWRDIDFAHEAPAFLPWHRLFLLRWEQEIQKLTGDENFTIPYWDWRDAEKCDICTDEYMGGQHPTNPNLLSPASFFSSWQIVCSRLEEYNSHQSLCNGTPEGPLRRNPGNHDKSRTPRLPSSADVEFCLSLTQYESGSMDKAANFSFRNTLEGFASPLTGIADASQSSMHNALHIYMDGTMSQVQGSANDPIFLLHHAFVDSIFEQWLQRHRPLQEVYPEANAPIGHNRESYMVPFIPLYRNGDFFISSKDLGYDYSYLQDSDPDSFQDYIKSYLEQASRIWSWLLGAAMVGAVLTALLAGLVSLLCRHKRKQLPEEKQPLLMEKEDYHSLYQSHL	no change	
